Substitutions are numbered along the chain they refer to.

To fix the notation:
T1: human FGFR3b expressed with a C-terminal myc-myc-hexahistidine tag (hFGFR3b.mmH) (human)
T1 construct: monomeric; also called REGN3152; monomeric human FGFR3b
T1 chain: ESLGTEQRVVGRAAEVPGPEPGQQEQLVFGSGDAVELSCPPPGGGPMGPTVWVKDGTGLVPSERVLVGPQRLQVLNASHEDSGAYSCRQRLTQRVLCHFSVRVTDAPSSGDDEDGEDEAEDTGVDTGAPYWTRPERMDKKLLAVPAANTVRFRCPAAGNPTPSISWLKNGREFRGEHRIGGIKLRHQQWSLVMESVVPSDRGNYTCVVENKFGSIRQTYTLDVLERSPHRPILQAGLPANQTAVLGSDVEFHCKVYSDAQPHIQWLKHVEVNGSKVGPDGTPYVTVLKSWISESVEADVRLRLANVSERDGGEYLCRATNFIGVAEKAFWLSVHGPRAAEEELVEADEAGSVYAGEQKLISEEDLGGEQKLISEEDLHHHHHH

T2: cynomolgus FGFR3b expressed with a C-terminal myc-myc-hexahistidine tag (mfFGFR3b.mmH) (cynomolgus)
T2 construct: The name states R357G; also called REGN3521; mf FGFR3b ecto (R357G) (E23-G377;R357G).mmH
T2 chain: T1 chain with A13V, P17S, G22S, T57A, R94L, R171K

T3: murine FGFR3b expressed with a C-terminal myc-myc-hexahistidine tag (mFGFR3b.mmH) (mouse)
T3 construct: monomeric; also called REGN3215; monomeric murine FGFR3b
T3 chain: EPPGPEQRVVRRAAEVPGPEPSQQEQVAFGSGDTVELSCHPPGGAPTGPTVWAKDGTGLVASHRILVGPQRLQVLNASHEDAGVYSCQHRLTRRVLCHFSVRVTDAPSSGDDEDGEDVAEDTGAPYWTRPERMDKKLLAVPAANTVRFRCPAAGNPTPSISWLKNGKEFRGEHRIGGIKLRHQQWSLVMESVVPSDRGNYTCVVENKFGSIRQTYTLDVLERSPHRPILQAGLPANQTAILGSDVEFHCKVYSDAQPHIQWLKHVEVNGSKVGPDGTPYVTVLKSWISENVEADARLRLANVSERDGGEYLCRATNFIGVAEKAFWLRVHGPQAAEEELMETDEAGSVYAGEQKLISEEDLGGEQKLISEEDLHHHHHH

B1: H4H30066P (antibody, human IgG4 S228P, kappa, V domains shown)
VH: QVQLVQSGAEVKKPGASVKVSCKVSGYTLTELSMHWVRQAPGKGLEWMGGFDPEDGEIIYAQKFQGRVTMTEDTSTDTAYMDLSSLTSEDTAVYYCATEKQQLVRKYYFYYGLAVWGQGTTVTVSS
VL: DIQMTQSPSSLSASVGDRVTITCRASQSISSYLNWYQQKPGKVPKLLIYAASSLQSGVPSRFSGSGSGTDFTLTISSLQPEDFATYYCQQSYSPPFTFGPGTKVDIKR
B2: H4H30071P (antibody, human IgG4 S228P, kappa, V domains shown)
VH: QVQLQQSGPGLVKPSQTLSLTCAISGDSVSRNSAAWNWIRQSPSSGLEWLGRTYYRSKWFYDYAISVKSRITVNPDTSKNQFSLHLNSVTPEDTAVYYCARGYGGYEDYFDYWGQGTLVTVSS
VL: DIQMTQSPSSVSASVGDRVTITCRASQGISSWLAWYQQKPGKAPKLLIYGASSLQSGVPSRFSGSGSGTDFTLTISSLQPEDFATYFCQQGSSFPYTFGQGTKLEIKR
B3: H4H30076P (antibody, human IgG4 S228P, kappa, V domains shown)
VH: EVQLVESGGGLVQPGGSLRLSCAASGFTVSSNYMSWVRQAPGKGLEWVSIIYSGGHTYYSDSVKGRFTISRHNSKNTLYLQMNSLRGGDTAVYYCARGYTSGWYGFDFWGQGTLVTVSS
VL: B2 VL with S31T, G50A, S65T, F87Y, G91T, S92N, Y96W, L104V
B4: H4H30105P2 (antibody, human IgG4 S228P, kappa, V domains shown)
VH: EVQLVQSGAEVKKPGESLKISCKGSGYSFTSYWIAWVRQMPGKGLEWMGIIYPGDSDTRYSPSFQGQVTMSADKSIRIAYLQWSSLKASDTAMYYCARLDYSGSWFDYWGQGTLVTVSS
VL: not shown
B5: H4H30089P2 (antibody, human IgG4 S228P, kappa, V domains shown)
VH: EVQLVESGGGLVQPGGSLRLSCIVSGFIFSSYEMSWLRQAPGKGLEWISYISSSGRVIYYADSVKGRFTISRDSAKNSLYLEMNSLRAEDTAIYYCTRKWDSSGPFDFWGQGTLVTVSS
VL: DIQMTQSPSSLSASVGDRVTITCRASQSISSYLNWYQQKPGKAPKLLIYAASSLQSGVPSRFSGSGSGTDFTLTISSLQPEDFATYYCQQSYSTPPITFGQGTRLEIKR
B6: human FGFR3b expressed with a C-terminal murine Fc tag (hFGFR3b.mFc) (Fc fusion)
chain: ESLGTEQRVVGRAAEVPGPEPGQQEQLVFGSGDAVELSCPPPGGGPMGPTVWVKDGTGLVPSERVLVGPQRLQVLNASHEDSGAYSCRQRLTQRVLCHFSVRVTDAPSSGDDEDGEDEAEDTGVDTGAPYWTRPERMDKKLLAVPAANTVRFRCPAAGNPTPSISWLKNGREFRGEHRIGGIKLRHQQWSLVMESVVPSDRGNYTCVVENKFGSIRQTYTLDVLERSPHRPILQAGLPANQTAVLGSDVEFHCKVYSDAQPHIQWLKHVEVNGSKVGPDGTPYVTVLKSWISESVEADVRLRLANVSERDGGEYLCRATNFIGVAEKAFWLSVHGPRAAEEELVEADEAGSVYAGEPRGPTIKPCPPCKCPAPNLLGGPSVFIFPPKIKDVLMISLSPIVTCVVVDVSEDDPDVQISWFVNNVEVHTAQTQTHREDYNSTLRVVSALPIQHQDWMSGKEFKCKVNNKDLPAPIERTISKPKGSVRAPQVYVLPPPEEEMTKKQVTLTCMVTDFMPEDIYVEWTNNGKTELNYKNTEPVLDSDGSYFMYSKLRVEKKNWVERNSYSCSVVHEGLHNHHTTKSFSRTPGK
notes: called dimeric; also called REGN3153; dimeric human FGFR3b

The first assay has as its target T1, human FGFR3b expressed with a …. The experiment in a line: SPR (Biacore), captured mAb, 25 C. As to the method: (§1) The CM5 Biacore sensor surface was derivatized by amine coupling with a monoclonal mouse anti-human Fc monoclonal antibody (REGN2567). All Biacore binding studies were performed in a buffer composed of 0.01M HEPES pH 7.4, 0.15 M NaCl, 3 mM EDTA, 0.05% v/v Surfactant P20 (HBS-EP running buffer). […] Antibody-reagent association was monitored for 5 minutes while dissociation in HBS-EP running buffer was monitored for 10 minutes. At the end of each cycle, the anti-FGFR3 antibody capture surface was regenerated using a 10 sec injection of 20 mM phosphoric acid. All binding kinetics experiments were performed at 25° C.
(§2) The specific SPR-Biacore sensorgrams were obtained by a double referencing procedure. The double referencing was performed by first subtracting the signal of each injection over a reference surface (anti-hFc) from the signal over the experimental surface (anti-hFc-captured anti-FGFR3 antibodies) thereby removing contributions from refractive index changes. In addition, running buffer injections were performed to allow subtraction of the signal changes resulting from the dissociation of captured antibodies from the coupled anti-hFc surface. Kinetic association (kₐ) and dissociation (kd) rate constants were determined by fitting the real-time sensorgrams to a 1:1 binding model using Scrubber v2.0c curve fitting software.
B1 gave a t½ of 18.2 min.
Turning to B2, the t½ was 390 min.
Same read-out and setting: for B3 the value was 263 min; for B4, 2.3 min.
Molecule B5 yielded a t½ of 4.1 min.

For the next assay, the target named is T2, cynomolgus FGFR3b expressed with a …. The experiment in a line: SPR (Biacore), captured mAb, 25 C. As to the method:
as §1, §2
With B1, the t½ came to 14.8 min.
Consider B2, for which the t½ is 520 min.
On the same count and under the same terms, for B3 the value was 350 min; for B4, 1.4 min.
On the same count and under the same terms, next, B5: 5.2 min.

Another assay addresses T3, murine FGFR3b expressed with a …. The experiment in a line: SPR (Biacore), captured mAb, 25 C. How it is done: as §1, §2
As for B1, the t½ was 2.4 min.
As for B2, the t½ was 6.9 min.
Still for that read-out and setting: for B3 the value was 320 min; for B4, 9.5 min; for B5, 4.9 min.

Another assay deals with T4, human FGFR3c expressed with a C-terminal myc-myc-hexahistidine tag (hFGFR3c.mmH) (human, UniProt P22607 23-375).
T4 construct: monomeric; also called REGN3155; monomeric human FGFR3c
The experiment in a line: SPR (Biacore), captured mAb, 25 C. How it is done: as §1, §2
Turning to B4, the t½ was 1.8 min.

A further assay concerns the target B6. Description: SPR (Biacore), captured mAb, 25 C. How it is done: as §1, §2
On to B1, for which the t½ is at least 1160 min.
Same read-out and setting: for B2 the value was at least 1160 min.
In turn, B3 returned a t½ of at least 1160 min.
The same measure, in the same setting: next, B5: 608 min.

For a further assay, the target named is T5, human fibroblast growth factor acidic (hFGF acidic) (human, UniProt P05230 2-155, limits assumed).
T5 construct: Bought; coated on the plate with heparin; also called FGF1 acidic
T5 sequence (P05230 2-155 limits assumed, form in doubt): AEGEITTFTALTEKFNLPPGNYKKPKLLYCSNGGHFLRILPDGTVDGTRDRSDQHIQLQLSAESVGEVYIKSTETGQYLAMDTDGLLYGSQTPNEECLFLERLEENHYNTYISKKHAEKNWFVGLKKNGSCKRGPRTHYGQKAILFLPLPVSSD
The experiment in a line: ELISA, receptor-Fc on plate-coated hFGF acidic with heparin; fixed concentration said to be chosen near the EC50 of this binding.
B6 came in with a half-maximal effective concentration (EC50) of around 4 nM.
